Measured values published in patent US20210283212A1 (RA PHARMACEUTICALS, published 2021).
Starred links: 1 amine or outer side, 2 acyl side, 3 side chain; linkers in the order of their positions; H or OH if unused. Positions of bridges follow the written chain, without caps; N, C: chain ends. Non-standard residues stand in square brackets, D forms with d. Primed or numbered codes have the meaning given here. No end group written: not given here. mXylyl(3) = bridging moiety between the two residues given in brackets; m‑xylyl = bridging moiety between the two residues given in brackets; Tyr(OMe) = O-methyl tyrosine, COc1ccc(C[C@H](N[*:1])C(=O)[*:2])cc1; Phe(3-CH2NH2) = O=C([C@H](Cc1cccc(CN[*:3])c1)N[*:1])[*:2]; mXylyl″ = bridging moiety between the two marked residues; Trp(7-aza) = N[C@@H](Cc1c[nH]c2ncccc12)C(=O)O; mXylyl(4) = bridging moiety between residues; NMePhe(4-F) = CN[C@@H](Cc1ccc(F)cc1)C(=O)O; pXylyl = bridging moiety between residues; PEG2000 = polyethylene glycol, 2000 Da; Phe(4-F) = N[C@@H](Cc1ccc(F)cc1)C(=O)O; 2Nal = N[C@@H](Cc1ccc2ccccc2c1)C(=O)O; mXylylene = c1cc(C[*:1])cc(C[*:2])c1; hPhe = N[C@@H](CCc1ccccc1)C(=O)O; Phg(2-OMe)′ = not defined here; dChg = N[C@@H](C(=O)O)C1CCCCC1; Chg = N[C@H](C(=O)O)C1CCCCC1; Phg = N[C@H](C(=O)O)c1ccccc1; Tle = CC(C)(C)[C@H](N)C(=O)O; NMeS = CN[C@@H](CO)C(=O)O; NMeA = CN[C@@H](C)C(=O)O; Ac5c = NC1(C(=O)O)CCCC1; Nva = CCC[C@H](N)C(=O)O; Aib = CC(C)(N)C(=O)O; Sar = CNCC(=O)O

B1: R3185 (peptide)
peptide: Ac-CVERFC[Ac5c][Tle]Y[Trp(7-aza)]EYP[Chg][Nva]
modifications: linker 1-6 via m‑xylyl
B2: R3051 (peptide)
peptide: [Nva]CY[NMeS][Phg][NMePhe(4-F)][NMeS]H[NMePhe(4-F)][Sar]C-NH2
modifications: linker 2-11 via mXylyl(4)
B3: R3083 (peptide)
peptide: Ac-VC[Phg]T[Trp(7-aza)]EY[NMeS]AC[Nva]-NH2
modifications: linker 2-10 via mXylyl(3)
B4: R3078 (peptide)
peptide: PEG2000-[Nva][Nva]YEN[Tle]Y[Trp(7-aza)]EYP[Phg][Nva]-NH2
B5: R3006 (peptide)
peptide: Ac-YEN[Tle]Y[Trp(7-aza)]EY[Sar][Nva][NMeS]-NH2
SMILES: CCC[C@H](NC(=O)CN(C)C(=O)[C@H](Cc1ccc(O)cc1)NC(=O)[C@H](CCC(=O)O)NC(=O)[C@H](Cc1c[nH]c2ncccc12)NC(=O)[C@H](Cc1ccc(O)cc1)NC(=O)[C@@H](NC(=O)[C@H](CC(N)=O)NC(=O)[C@H](CCC(=O)O)NC(=O)[C@H](Cc1ccc(O)cc1)NC(C)=O)C(C)(C)C)C(=O)N(C)[C@@H](CO)C(N)=O
B6: R3096 (peptide)
peptide: Ac-[Nva]C[Phg][Aib][Trp(7-aza)]EY[NMeS]HC[Nva]-NH2
modifications: linker 2-10 via mXylyl(3)
B7: R3180 (peptide)
peptide: Ac-CVERFCD[Tle]Y[Trp(7-aza)]E[2Nal]P[Chg][Nva]
modifications: linker 1-6 via m‑xylyl
B8: R3073 (peptide)
peptide: Ac-[Nva]C[Phg]T[Trp(7-aza)]E[Phe(4-F)][NMeS]HC[Nva]-NH2
modifications: linker 2-10 via mXylyl(3)
B9: R3076 (peptide)
peptide: VVYENGYWEYPGVK
modifications: Ac-Nvl-Nvl-Y-E-N-Tbg-Y-azaTrp-E-Y-P-Chg-Nvl-K-(BODIPY-TMR-X) NH2
B10: R3184 (peptide)
peptide: VERFCD[Tle]Y[Trp(7-aza)]EYP[Chg][Nva]
modifications: thioether 1-5
B11: R3053 (peptide)
peptide: [Nva]CCN[Tle][Phg]C[Tle][NMeS]C[Tle]-NH2
modifications: linker (positions not given here) via mXylylene; also: mXylyl bicyclo: linked cysteines not given here
B12: R3077 (peptide)
peptide: Ac-[Nva][Nva]YEN[Tle]Y[Trp(7-aza)]EYP[Chg][Nva]K
modifications: not fully specified (residue 14, C-terminus); printed as Ac-Nvl-Nvl-Y-E-N-Tbg-Y-azaTrp-E-Y-P-Chg-Nvl-K-(PEG2000) NH2; also: PEG2000 at C-terminal Lys (K-(PEG2000) NH2), attachment unclear
B13: R3089 (peptide)
peptide: Ac-[Chg]C[Phg]T[Trp(7-aza)]EY[NMeS]AC[Nva]-NH2
modifications: linker 2-10 via mXylyl(3)
B14: R3100 (peptide)
peptide: Ac-[Nva]C[Phg]T[Trp(7-aza)]EF[NMeS]AC[Nva]-NH2
modifications: linker 2-10 via mXylyl(3)
B15: R3090 (peptide)
peptide: Ac-[Nva]CFT[Trp(7-aza)]EY[NMeS]AC[Nva]-NH2
modifications: linker 2-10 via mXylyl(3)
B16: R3093 (peptide)
peptide: Ac-[Nva]C[dChg]T[Trp(7-aza)]EY[NMeS]AC[Nva]-NH2
modifications: linker 2-10 via mXylyl(3)
B17: R3177 (peptide)
peptide: Ac-CVERFCD[Tle]Y[Trp(7-aza)]EWP[Chg][Nva]
modifications: linker 1-6 via m‑xylyl
B18: R3080 (peptide)
peptide: Ac-[Nva]C[Phg]T[Trp(7-aza)]EY[NMeS]C[Nva]-NH2
modifications: linker 2-9 via mXylyl(3)
B19: R3074 (peptide)
peptide: Ac-[Nva]C[Phg]T[Trp(7-aza)]E[Tyr(OMe)][NMeS]HC[Nva]-NH2
modifications: linker 2-10 via mXylyl(3)
B20: R3052 (peptide)
peptide: [Nva]CY[Tle][Phg]N[Sar]LC[Phg][NMeA]-NH2
modifications: linker 2-9 via mXylyl(4)
B21: R3086 (peptide)
peptide: Ac-[Nva]SYEC[Tle]Y[Trp(7-aza)]EYP[Chg]C[Nva]-NH2
modifications: linker 5-13 via mXylyl(3)
B22: R3084 (peptide)
peptide: Ac-[Nva]C[Phg]T[Trp(7-aza)]EYSAC[Nva]-NH2
modifications: linker 2-10 via mXylyl(3)
B23: R3097 (peptide)
peptide: Ac-[Nva]C[Phg]T[Trp(7-aza)]DY[NMeS]AC[Nva]-NH2
modifications: linker 2-10 via mXylyl(3)
B24: R3072 (peptide)
peptide: Ac-[Nva][Nva]YEN[Tle]Y[Trp(7-aza)]EYP[Chg][Nva]K-NH2
SMILES: CCC[C@H](NC(C)=O)C(=O)N[C@@H](CCC)C(=O)N[C@@H](Cc1ccc(O)cc1)C(=O)N[C@@H](CCC(=O)O)C(=O)N[C@@H](CC(N)=O)C(=O)N[C@H](C(=O)N[C@@H](Cc1ccc(O)cc1)C(=O)N[C@@H](Cc1c[nH]c2ncccc12)C(=O)N[C@@H](CCC(=O)O)C(=O)N[C@@H](Cc1ccc(O)cc1)C(=O)N1CCC[C@H]1C(=O)N[C@H](C(=O)N[C@@H](CCC)C(=O)N[C@@H](CCCCN)C(N)=O)C1CCCCC1)C(C)(C)C
B25: R3057 (peptide)
peptide: MCVERFCD[Tle]Y[Trp(7-aza)]EYP[Phg][Nva]-NH2
modifications: linker 2-7 via mXylyl(4); not fully specified; printed as [mXylyl(2,7)]M-C-V-E-R-F-C-D-Tbg-Y-azaTrp-E-Y-P-Phg-Nvl-NH2
B26: R3065 (peptide)
peptide: Ac-[Nva]C[Phg]T[Trp(7-aza)]EYPHC[Nva]-NH2
modifications: linker 2-10 via pXylyl
B27: R3179 (peptide)
peptide: Ac-CVERFCD[Tle]Y[Trp(7-aza)]E[(m-Cl-homo)Phe]P[Chg][Nva]
modifications: linker 1-6 via m‑xylyl
B28: R3058 (peptide)
peptide: Ac-[Nva]C[Chg]T[Trp(7-aza)]EY[NMeS]HC[Nva]-NH2
modifications: linker 2-10 via pXylyl
B29: R3075 (peptide)
peptide: [Nva]CY[NMeS][Phg][NMePhe(4-F)][NMeS]H[NMePhe(4-F)]GC-NH2
modifications: linker 2-11 via mXylyl(3)
B30: R3095 (peptide)
peptide: Ac-[Nva]C[Phg]T[Trp(7-aza)]E[hPhe][NMeS]AC[Nva]-NH2
modifications: linker 2-10 via mXylyl(3)
B31: R3005 (peptide)
peptide: Ac-[Nva]CY[Trp(7-aza)][Sar][Tle][Nva][Trp(7-aza)]EYP[Phg]P-NH2
SMILES: CCC[C@H](NC(C)=O)C(=O)N[C@@H](CS)C(=O)N[C@@H](Cc1ccc(O)cc1)C(=O)N[C@@H](Cc1c[nH]c2ncccc12)C(=O)N(C)CC(=O)N[C@H](C(=O)N[C@@H](CCC)C(=O)N[C@@H](Cc1c[nH]c2ncccc12)C(=O)N[C@@H](CCC(=O)O)C(=O)N[C@@H](Cc1ccc(O)cc1)C(=O)N1CCC[C@H]1C(=O)N[C@H](C(=O)N1CCC[C@H]1C(N)=O)c1ccccc1)C(C)(C)C
B32: R3098 (peptide)
peptide: Ac-[Nva]C[Phg]T[Trp(7-aza)]QY[NMeS]AC[Nva]-NH2
modifications: linker 2-10 via mXylyl(3)
B33: R3099 (peptide)
peptide: Ac-[Nva]C[Phg]T[Trp(7-aza)]NY[NMeS]AC[Nva]-NH2
modifications: linker 2-10 via mXylyl(3)
B34: R3007 (peptide)
peptide: Ac-[Nva]CKE[Phg]YC[NMeS][Tle]K[Trp(7-aza)]EY-NH2
modifications: linker 2-7 via mXylyl″
B35: R3087 (peptide)
peptide: Ac-[Nva]C[Phg(2-OMe)′]T[Trp(7-aza)]EY[NMeS]HC[Nva]-NH2
modifications: linker 2-10 via mXylyl(3)
B36: R3181 (peptide)
peptide: Ac-CVERFCD[Tle]Y[Phe(3-CH2NH2)]EYP[Chg][Nva]
modifications: linker 1-6 via m‑xylyl

Columns and labels:
human C5 protein [1] = biological target: T1, human C5 protein (human, UniProt P01031 19-673; P01031 678-1676); test: cell-based or functional assay
human C5 protein [2] = biological target: T1, human C5 protein; test: cell-based or functional assay; remark: listed apart in the source

Binder	Avg. IC50, hemolysis assay with C5 depleted sera (human C5 protein [1])	Avg. IC50, human hemolysis assay (human C5 protein [2])
B1	12.5 nM	
B2		> 100000 nM
B3		> 25000 nM
B4		568 nM
B5		267 nM
B6		> 50000 nM
B7	29 nM	
B8		403 nM
B9		297 nM
B10	4 nM	
B11		> 100000 nM
B12		81.7 nM
B13		> 15000 nM
B14		626 nM
B15		> 100000 nM
B16		> 100000 nM
B17	12 nM	
B18		> 50000 nM

Binder	Avg. IC50, hemolysis assay with C5 depleted sera (human C5 protein [1])	Avg. IC50, human hemolysis assay (human C5 protein [2])
B19		308 nM
B20		> 100000 nM
B21		> 50000 nM
B22		> 100000 nM
B23		> 100000 nM
B24		26.9 nM
B25		12.4 nM
B26		394 nM
B27	83 nM	
B28		> 10000 nM
B29		> 75000 nM
B30		> 50000 nM
B31		66.7 nM
B32		> 100000 nM
B33		> 100000 nM
B34		314 nM
B35		> 25000 nM
B36	1500 nM	
